Source: article PMC4167904

Target: T1, p52 (NF-kB2) (human, UniProt Q00653 1-408)
T1 sequence: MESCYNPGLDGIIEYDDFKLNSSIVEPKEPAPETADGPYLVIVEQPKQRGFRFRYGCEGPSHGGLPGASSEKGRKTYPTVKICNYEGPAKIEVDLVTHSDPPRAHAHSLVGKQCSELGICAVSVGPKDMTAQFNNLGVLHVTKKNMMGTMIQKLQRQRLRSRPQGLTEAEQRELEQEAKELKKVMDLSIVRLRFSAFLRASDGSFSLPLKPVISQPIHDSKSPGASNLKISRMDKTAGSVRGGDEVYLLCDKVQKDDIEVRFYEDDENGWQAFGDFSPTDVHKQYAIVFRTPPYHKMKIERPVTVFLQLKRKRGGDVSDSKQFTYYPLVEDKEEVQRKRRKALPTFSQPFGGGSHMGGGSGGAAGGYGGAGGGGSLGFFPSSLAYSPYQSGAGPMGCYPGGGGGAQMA
Experiment: EMSA

B1: P-selectin kB (A/T) (dsDNA)
DNA 1: TCGACGGAAGGGGGTAACCCCTTGGG
DNA 2: GATCCCCAAGGGGTTACCCCCTTCCG
B1: binds.
